Results published in article PMC11317129, “Bacterial histone HBb from Bdellovibrio bacteriovorus compacts DNA by bending” (Nucleic Acids Research, 2023).

Columns and labels:
[1] = biological target: the molecule itself; experiment: SEC-MALS; purified HBb in solution; 1260 Infinity II HPLC with miniDAWN TREOS and Optilab T-rEX detectors
[2] = biological target: HMfB (Methanothermus fervidus, UniProt P19267 1-69); experiment: MST; unit printed as M (symbol lost); 20 nM in HMfB titration; MST: 20 mM Tris pH 8.0, 150 mM NaCl, 2.5 mM 2-mercaptoethanol, 37 C 10 min (HMfB RT 5 min); EMSA 80 bp: 25 mM Tris pH 8.0, 50 mM NaCl, 50 mM KCl, 37 C; ladder EMSA/MNase/circularization: 50 mM Tris pH 7.0, 75 mM KCl, RT; conditions: protein: recombinant; tags: N-terminal His6 (vector pET28a); chain copies: 4; label: 5' Cy5 on strand 1; blunt
HMfB, sequence (P19267 whole entry): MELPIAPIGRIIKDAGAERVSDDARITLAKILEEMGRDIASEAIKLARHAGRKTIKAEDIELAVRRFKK

[3] = biological target: T1, HBb (Bd0055) (Bdellovibrio bacteriovorus HD100, UniProt Q6MRM1 1-64); experiment: MST; unit printed as M (symbol lost); 10 nM DNA; MST: 20 mM Tris pH 8.0, 150 mM NaCl, 2.5 mM 2-mercaptoethanol, 37 C 10 min (HMfB RT 5 min); EMSA 80 bp: 25 mM Tris pH 8.0, 50 mM NaCl, 50 mM KCl, 37 C; ladder EMSA/MNase/circularization: 50 mM Tris pH 7.0, 75 mM KCl, RT; conditions: protein: recombinant; tags: N-terminal His6 (vector pETHis1a); chain copies: 2; label: 5' Cy5 on strand 1; blunt
T1 sequence: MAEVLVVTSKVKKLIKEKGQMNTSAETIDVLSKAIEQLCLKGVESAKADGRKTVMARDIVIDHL

[4] = biological target: T1, HBb (Bd0055); experiment: MST; unit printed as M (symbol lost); text says lower micromolar; 10 nM DNA; MST: 20 mM Tris pH 8.0, 150 mM NaCl, 2.5 mM 2-mercaptoethanol, 37 C 10 min (HMfB RT 5 min); EMSA 80 bp: 25 mM Tris pH 8.0, 50 mM NaCl, 50 mM KCl, 37 C; ladder EMSA/MNase/circularization: 50 mM Tris pH 7.0, 75 mM KCl, RT; conditions: protein: recombinant; tags: N-terminal His6 (vector pETHis1a); chain copies: 2; label: 5' Cy5 on strand 1; blunt

B1: bacterial histone HBb (Histone of B. bacteriovorus) (natural protein, Bdellovibrio bacteriovorus)
chain: T1 sequence
notes: theoretical molecular weight 7 kDa; Homodimer by SEC-MALS and in the crystals; also called Bd0055
Question: For B1, which “stoichiometry N” value [1] is on record?
Answer: Its value is 2.

B2: 80 bp-GC50 [Cy5] (dsDNA)
DNA 1: TTAAAGCCCGTTAAAGCCCGTTAAAGCCCGTTAAAGCCCGTTAAAGCCCGTTAAAGCCCGTTAAAGCCCGTTAAAGCCCG
DNA 2: CGGGCTTTAACGGGCTTTAACGGGCTTTAACGGGCTTTAACGGGCTTTAACGGGCTTTAACGGGCTTTAACGGGCTTTAA
Question: Which Kd [2] does the source give for B2 here?
Answer: The Kd was 3.92 ± 1.16 µM.

Question: What about the Kd [3] of the same binder?
Answer: Its Kd is 11.1 ± 1.07 µM.

B3: 80 bp DNA [Cy5] (dsDNA)
DNA 1: CCGTACTGTCGTCTGCGGCCTTTGATTATCAATTAAAGCGTTCTACGGCGTTTTTGATCGCTCAACGTGCGGAGCTAGAT
DNA 2: ATCTAGCTCCGCACGTTGAGCGATCAAAAACGCCGTAGAACGCTTTAATTGATAATCAAAGGCCGCAGACGACAGTACGG
Question: B3 was tested. Which Kd [4] did it give?
Answer: Its Kd is 4.84 ± 0.97 µM.

Question: And the Kd [2]?
Answer: Its Kd is 0.83 ± 0.27 µM.
